From the MegaScale stability set (Tsuboyama et al. 2023)

B1: HHH_rd1_0493 (parent)
chain: RDEDEKEKIKEALKRGNEDKAKEIAKRANVSPEEYERLRKEAE

Variants of: B1
Experiment: folding stability dG (cDNA display proteolysis); higher = more stable
Conditions: PBS, room temperature

Folding stability dG [kcal/mol], by site and new letter:
D19: K 3.07; M 3.04; S 2.93; V 2.99; H 2.85; W 2.72; E 3.28; Q 3.15; R 2.97; L 2.98; N 2.86; A 3.31; T 3.05; F 2.6; Y 2.5; G 2.76; P 2.64; I 2.95
E23: S 2.42; H 1.96; F 1.7; L 2.16; I 2.35; C 2.49; T 2.22; P 0.537; Y 1.79; R 2.39; V 2.17; W 1.79; N 2.02; A 2.87; M 2.33; Q 2.73; D 2.56; G 1.92; K 2.26
I24: L 2.8; E 1.16; D 0.95; P 0.59; K 0.623; N 0.704; G 0.729; H 1.67; C 1.77; A 1.47; F 1.48; M 2.13; Q 1.13
A21: N 0.483; Y 0.355; C 1.29; I 0.511; K 0.184; T 0.424; R 0.336; H 0.313; F 0.6; S 1.11; D 0.52; M 0.506; E 0.568; V 0.589; W 0.514; G 1.13; P 0.448; L 0.541; Q 0.364
K22: T 2.24; Q 2.86; W 2.75; P 0.613; C 1.79; N 2.11; G 1.64; F 2.31; M 3.03; D 1.73; L 3.1; R 3.21; S 2.2; H 2.46; I 2.8; V 2.44; Y 2.11; A 2.61; E 2.26
E18: Q 2.54; S 2.47; W 2.62; I 3.25; F 3.24; K 2.25; D 2.47; T 2.84; G 2.06; V 3.19; M 2.74; A 2.59; L 2.86; H 2.94; C 2.58; R 2.15; Y 3.21; P 2.48; N 2.29
R15: T 2.81; Y 2.69; V 2.83; W 2.81
K20: W 3.02; M 3.37; V 3.24; Y 3.13; Q 3.19; I 3.16; G 2.5; N 2.27; P 0.93; F 2.98; H 2.87; T 2.76; L 4.31; R 3; A 3.16; S 2.6; D 2.85; E 3.82
G16: W 0.968; L 1.39; A 1.67; D 1.47; N 1.91; E 1.19; I 0.476; R 1.97; Y 0.998; H 2.04; Q 1.56; V 0.445; S 1.29; T 0.598; P 0.767; C 1.76; M 1.46; F 1.55; K 1.73
N17: G 1.46; Q 3.2; I 1.54; F 2.98; Y 2.75; A 2.65; S 2.19; L 3.13; H 3.01; V 1.45; C 1.99; M 2.94; E 3.38; W 3.09; D 3.78; T 1.63; P 1.03; K 2.41; R 2.68
